The target in experiment [1] is human von Willebrand factor (VWF) (human) (UniProt P04275).
Experiment [2] has as its target Monodelphis domestica von Willebrand factor (VWF), purified from plasma (Monodelphis domestica).

These results are taken from publication PMC12448354.

With “botrocetin from Bothrops jararaca (purified venom fraction) (complex)”, the reduction in the overall extent of platelet adhesion to collagen under flow (60 dyn/cm^2), human PRP with 4 ug/mL botrocetin, against the control without venom protein in experiment [1] was determined as 66%. Further, in experiment [2], the reduction in the overall extent of platelet adhesion to collagen under flow (60 dyn/cm^2), opossum PRP with 4 ug/mL botrocetin, against the control without venom protein came to 39%.
